The labels stand for the following.
B2: NK1 (human HGF amino acids 31-209) (ligand, UniProt P14210 31-209, looked up)
chain: GQRKRRNTIHEFKKSAKTTLIKIDPALKIKTKKVNTADQCANRCTRNKGLPFTCKAFVFDKARKQCLWFPFNSMSSGVKKEFGHEFDLYENKDYIRNCIIGKGRSYKGTVSITKSGIKCQPWSSMIPHEHSFLPSSYRGKDLQENYCRNPRGEEGGPWCFTSNPEVRYEVCDIPQCSEV
notes: human HGF amino acids 31-209 (N and K1 domains), after an HR3C site; source: E. coli Rosetta-gami 2 (DE3), purified (Ni Sepharose, SEC); not shown: DsBC, N-terminal, cleaved; His6, N-terminal, cleaved

The target in data set [1] is T1, full-length human hepatocyte growth factor (HGF), wild type (human, UniProt P14210 32-728).
T1 construct: signal peptide in the construct; full-length human HGF followed by an HR3C site and a His6 tag; written here as one chain; also called HGF WT; HGF I; source: HEK293F infected with baculovirus (pEZT-BM), 5% FBS in the medium, secreted, purified (cation exchange, SEC)
T1 sequence (P14210 32-728): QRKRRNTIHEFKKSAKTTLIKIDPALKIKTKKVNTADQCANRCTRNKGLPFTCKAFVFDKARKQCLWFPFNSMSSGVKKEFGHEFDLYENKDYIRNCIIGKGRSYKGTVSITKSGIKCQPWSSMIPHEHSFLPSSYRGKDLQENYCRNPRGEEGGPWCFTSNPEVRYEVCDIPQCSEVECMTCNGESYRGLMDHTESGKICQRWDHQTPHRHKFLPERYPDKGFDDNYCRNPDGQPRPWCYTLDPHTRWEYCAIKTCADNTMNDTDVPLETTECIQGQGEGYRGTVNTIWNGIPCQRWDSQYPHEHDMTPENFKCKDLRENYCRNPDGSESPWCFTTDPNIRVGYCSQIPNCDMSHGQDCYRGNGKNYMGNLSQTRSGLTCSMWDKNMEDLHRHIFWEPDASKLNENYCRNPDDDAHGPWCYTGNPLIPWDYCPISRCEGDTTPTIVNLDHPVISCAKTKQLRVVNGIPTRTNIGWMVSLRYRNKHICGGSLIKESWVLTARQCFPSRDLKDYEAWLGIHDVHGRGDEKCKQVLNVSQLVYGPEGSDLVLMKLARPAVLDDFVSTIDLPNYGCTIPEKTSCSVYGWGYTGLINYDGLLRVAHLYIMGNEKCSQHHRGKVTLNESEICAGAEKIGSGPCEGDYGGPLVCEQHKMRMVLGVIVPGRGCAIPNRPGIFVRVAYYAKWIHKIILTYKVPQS
In words: SEC; c-MET927 or c-MET927-LZ alone and mixed with HGF in vitro (Supplementary Fig. 1); whether heparin was added is not told. Particulars: both partners purified. On the technique in general: SEC sorts molecules by how far they enter the pores of the column.

Data set [2] deals with the molecule itself. Described as above.
Data set [3] addresses B2. The experiment in a line: cryo-EM structure; c-MET927-LZ mixed with NK1 and heparin (Tinzaparin sodium) 1:1:4, complex isolated by SEC in 20 mM Hepes pH 7.5, 100 mM NaCl; 2 mM fluorinated Fos-Choline-8 added before freezing. The settings on record: both partners purified.
Data set [4] concerns the molecule itself. The description is as above.

These results are taken from PMC8249616, “Structural basis of the activation of c-MET receptor” (Nature Communications, 2021).

B1: c-MET927-LZ (c-MET 1-927, GGGGS linker, GCN4 leucine zipper), tags cleaved (receptor)
chain: not shown
notes: signal peptide in the construct; linker; written here as one chain; also called c-MET-LZ; c-MET I; source: HEK293F infected with baculovirus (pEZT-BM), secreted, purified (Ni resin, SEC); not shown: Tsi3, C-terminal, cleaved; His6, C-terminal, cleaved
Turning to B1, the binding result in data set [1] and in data set [3] was “binds” each time. In addition, the “stoichiometry N” value in data set [2] turned out to be 2.

For B2, the “stoichiometry N” value in data set [4] came out at 2.

Usually stoichiometry N stands for the number of molecules, sites or subunits per partner or assembly.
